Test results published in US20140193401A1 (published 2014).
Changes are numbered by the printed parent chain.

What was measured:
PTx-S1-220 N176A = target: T1, PTx-S1-220 N176A (Bordetella pertussis, UniProt P04977 35-254); assay: SPR (BIAcore 3000), mAb 1B7 immobilised on CM5 chip, toxin injected
T1 chain: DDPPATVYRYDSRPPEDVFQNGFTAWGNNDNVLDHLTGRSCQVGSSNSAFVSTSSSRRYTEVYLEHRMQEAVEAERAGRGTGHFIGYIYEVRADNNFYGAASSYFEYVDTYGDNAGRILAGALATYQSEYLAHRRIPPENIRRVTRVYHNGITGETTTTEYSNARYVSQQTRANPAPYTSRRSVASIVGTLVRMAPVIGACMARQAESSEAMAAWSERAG

PTx-S1-220 Y166A = target: T2, PTx-S1-220 Y166A (Bordetella pertussis, UniProt P04977 35-254); assay: as above
T2 chain: T1 chain with Y166A, A176N

PTx-S1-220 N150A = target: T3, PTx-S1-220 N150A (Bordetella pertussis, UniProt P04977 35-254); assay: as above
T3 chain: T1 chain with N150A, A176N

PTx-S1-220 Y161A = target: T4, PTx-S1-220 Y161A (Bordetella pertussis, UniProt P04977 35-254); assay: as above
T4 chain: T1 chain with Y161A, A176N

PTx-S1-220 R146A = target: T5, PTx-S1-220 R146A (Bordetella pertussis, UniProt P04977 35-254); assay: as above
T5 chain: T1 chain with R146A, A176N

PTx-S1-220 T81A = target: T6, PTx-S1-220 T81A (Bordetella pertussis, UniProt P04977 35-254); assay: as above
T6 chain: T1 chain with T81A, A176N

PTx-S1-220 T153A = target: T7, PTx-S1-220 T153A (Bordetella pertussis, UniProt P04977 35-254); assay: as above
T7 chain: T1 chain with T153A, A176N

[1] = target: T8, PTx-S1-220 (truncated PTx-S1, residues 1-220, strain Tohama I, variant B) (Bordetella pertussis, UniProt P04977 35-254); assay: as above
T8 construct: also called WT PTx-S1-220; PTx-S1B
T8 sequence: T1 chain with A176N

PTx-S1-220 Y8A = target: T9, PTx-S1-220 Y8A (Bordetella pertussis, UniProt P04977 35-254); assay: Western blot with mAb 1B7; paragraph 150 says 1B7 was unable to bind Y8A
T9 chain: T1 chain with Y8A, A176N

B1: murine monoclonal antibody 1B7 (antibody, V domains shown)
VH: EVQLQQSGSELVRPGASVKLSCKASGYKFTSYWMHWVKQRPGQGLEWIGNIFPGSGSTNYDEKFNSKATLTVDTSSNTAYMQLSSLTSEDSAVYYCTRWLSGAYFDYWGQGTTLTVSS
VL: DIQMTQSPALMSASPGEKVTMTCSASSSVSFMYWYQQKPRSSPKPWIYLTSNLPSGVPARFSGSGSGTSYSLTISSMEAEDAATYYCQQWSSHPPTFGSGTKLEIKR
notes: also called mAb 1B7; 1B7 mAb
In the case of B1, the koff (PTx-S1-220 N176A) is reported as 0.0011 s⁻¹, the koff (PTx-S1-220 Y166A) is reported as 0.0014 s⁻¹ and the koff (PTx-S1-220 N150A) is reported as 0.008 s⁻¹. It also gave a koff (PTx-S1-220 Y161A) of 0.0013 s⁻¹, a koff (PTx-S1-220 R146A) of 0.0015 s⁻¹ and a koff (PTx-S1-220 T81A) of 0.0017 s⁻¹. For the same binder, the koff (PTx-S1-220 T153A) was 0.002 s⁻¹, the koff [1] was 0.0014 s⁻¹ and the binding result (PTx-S1-220 Y8A) was “no binding”.
